Where no end group is shown, it is not given here. [ ]: non-standard residue; d: D form. dPhe(4-NO2) = N[C@H](Cc1ccc([N+](=O)[O-])cc1)C(=O)O; dPhe(F5) = N[C@H](Cc1c(F)c(F)c(F)c(F)c1F)C(=O)O; dBpa = N[C@H](Cc1ccc(C(=O)c2ccccc2)cc1)C(=O)O; dCha = N[C@H](CC1CCCCC1)C(=O)O
T1: baculovirus derived recombinant human full length Chk1 with histidine tag (human, UniProt O14757 1-476)
T1 sequence: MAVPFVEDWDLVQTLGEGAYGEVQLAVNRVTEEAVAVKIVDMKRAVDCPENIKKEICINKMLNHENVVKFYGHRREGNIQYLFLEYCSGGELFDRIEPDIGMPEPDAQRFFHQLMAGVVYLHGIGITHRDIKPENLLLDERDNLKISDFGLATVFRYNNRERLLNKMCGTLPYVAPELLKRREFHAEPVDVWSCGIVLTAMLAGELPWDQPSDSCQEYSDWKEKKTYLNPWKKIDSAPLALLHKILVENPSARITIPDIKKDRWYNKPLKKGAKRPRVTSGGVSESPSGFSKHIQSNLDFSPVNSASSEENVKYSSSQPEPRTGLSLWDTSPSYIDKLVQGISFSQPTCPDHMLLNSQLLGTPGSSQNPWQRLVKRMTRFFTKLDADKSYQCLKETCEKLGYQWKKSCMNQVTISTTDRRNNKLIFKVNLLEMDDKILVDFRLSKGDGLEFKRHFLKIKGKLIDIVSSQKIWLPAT


What was measured:
Experiment in all cases: cell-based or functional assay
[1] = target: E. Coli derived recombinant human full length Chk2 fused with GST (human, UniProt O96017 1-543)
[2] = target: T1, baculovirus derived recombinant human …
PKA = target: PKA
purified CHK2 kinase = purified CHK2 kinase (UniProt O96017 1-543)
purified CHK2 kinase, sequence (O96017 whole entry): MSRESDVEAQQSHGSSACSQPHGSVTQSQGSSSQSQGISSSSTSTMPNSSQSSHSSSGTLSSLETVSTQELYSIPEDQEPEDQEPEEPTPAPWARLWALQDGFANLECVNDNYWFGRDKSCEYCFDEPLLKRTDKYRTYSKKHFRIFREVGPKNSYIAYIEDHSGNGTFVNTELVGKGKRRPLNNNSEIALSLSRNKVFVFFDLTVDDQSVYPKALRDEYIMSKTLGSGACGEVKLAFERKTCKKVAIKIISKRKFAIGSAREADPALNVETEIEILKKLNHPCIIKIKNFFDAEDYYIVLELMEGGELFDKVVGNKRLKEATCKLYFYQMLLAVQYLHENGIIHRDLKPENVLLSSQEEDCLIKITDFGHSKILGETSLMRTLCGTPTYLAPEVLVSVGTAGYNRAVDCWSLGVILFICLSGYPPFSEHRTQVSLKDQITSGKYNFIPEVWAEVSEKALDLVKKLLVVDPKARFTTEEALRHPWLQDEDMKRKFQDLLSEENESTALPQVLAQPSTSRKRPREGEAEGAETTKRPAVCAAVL

E. Coli derived recombinant human full length Chk2 fused with GST, sequence (O96017 whole entry, the tested form may be a part): as the sequence (O96017 whole entry) above

| Binder | Kinase inhibition analysis of peptides (phosphorylation of serine 216 on GST-Cdc25C 167-267, enzyme linked immune assay) [1] | Kinase inhibition analysis of peptides (phosphorylation of serine 216 on GST-Cdc25C 167-267, enzyme linked immune assay) [2] | IC50 in µM, kinase inhibition analysis (PepTag Non-Radioactive Protein Kinase Assay) (PKA) [µM] | IC50 in µM, kinase inhibition analysis (PepTag Non-Radioactive Protein Kinase Assay) (purified CHK2 kinase) [µM] |
| --- | --- | --- | --- | --- |
| [dBpa][dD][dS][dW][dS][dPhe(F5)][dCha][dR][dR][dR][dQ][dR][dR] (also: cyclised or stapled (no detail)) [CBP505] | > 100 | 63.4 | – | – |
| [dBpa][dS][dW][dS][dPhe(F5)][dCha][dR][dR][dR][dQ][dR][dR] [CBP501] | 18.6 | 7.9 | – | – |
| [dBpa][dS][dW][dS][dPhe(4-NO2)][dCha][dR][dR][dR][dQ][dR][dR] (also: cyclised or stapled (no detail)) [CBP603] | 18.1 | 15.5 | – | – |
| [dY][dY][dS]G[dS][dR][dPhe(F5)][dCha][dR][dR][dR][dQ][dR][dR][dK][dK][dR]G[dY] [CBP450] | – | – | > 400 | 10 |
| [dY][dBpa][dS][dW][dS][dPhe(F5)][dCha][dR][dR][dR][dQ][dR][dR] [CBP500] | 8 | 5.6 | – | – |
| YGRKKRRQRRRXFXYY ((l-Tyr)(l-Gly)(l-Arg)(l-Lys)(l-Lys)(l-Arg)(l-Arg)(l-Gln)(l-Arg)(l-Arg)(l-Arg)(l-Cha)(l-Phe-2,3,4,5,6-F)(l-aminoundecanoic acid)(l-Tyr)(l-Tyr): position 12 cyclohexyl-alanine; position 13 pentafluoro-phenylalanine; position 14 aminoundecanoic acid) [CBP440] | – | – | 180 | 8 |

Reference: US20150056301A1 (CANBAS, published 2015)
